Experimental data reported in the supplement of paper PMC12042874.
± gives the uncertainty stated by the source.

Experiment: amyloid nucleation score (Sup35N fusion, yeast selection) (log enrichment); library NNK2; higher = more nucleation; inactive = no reads after selection
Method in brief: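 On medium lacking adenine and uracil, psi-negative yeast expressing peptides of 20 random codons fused to Sup35N were grown 7 days at 30°C after a 24-hour induction with 100 μM copper sulfate. Illumina sequencing of input and output plasmid inserts gave the reads, and sequences under 100 input reads were excluded. The nucleation score is the DiMSum log enrichment of output over input reads, centred on the mode score of non-aggregating sequences.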

| Substance | amyloid nucleation score |
| --- | --- |
| KSHAPFVLMCRIGVGSKCGK | 3.81 ± 0.09 |
| SLLESLVAMLVGVQRVVDSR | 1.03 ± 0.51 |
| DHSEYSVITKFVLHRSCSQG | 8.451 ± 0.067 |
| ENFGVVMRWGYIRLLLQANW | inactive |
| ILQGADLKLVYFVNHRMERV | 1.24 ± 0.21 |
| HCYQTDRSHIICHELLHCFV | -0.74 ± 0.49 |
| LGIASLQNGSGIGAWQAY | 0.04 ± 0.76 |
| YVCGWINVLG | -0.661 ± 0.63 |
| FVEGLYWVSVVILG | -1.58 ± 1 |
| DSIYVL | -0.831 ± 0.44 |
| HVAQTS | 1.04 ± 0.4 |
| YHFTLGCNSEGCR | -0.668 ± 0.24 |
| EVPCWMTRSSMECNVDYWEG | 0.797 ± 0.2 |
| DGFYCL | 0.019 ± 1.1 |
| WKQLSSWIAIDSLRARKTLS | -0.405 ± 0.42 |
| DCLNRLY | 0.138 ± 0.76 |
| SMADFIV | -0.767 ± 0.76 |
| LARSLSVNQYKPNLLFVGCD | -1.52 ± 1.1 |
| DMNVVYTVCRVKARDCERDY | 5.322 ± 0.041 |
| QQLLSMLLFNFQYGCARLYC | 0.072 ± 0.44 |
| LFWFIYGSYRTVRACGRYSN | 0.516 ± 0.64 |
| TSDWRLYFRLTDVVIGLW | 1.86 ± 0.083 |

| Substance | amyloid nucleation score |
| --- | --- |
| GKYSLTTCAR | 0.449 ± 0.8 |
| EYRSDCMDYLGDVCWCPNIL | inactive |
| MINFDYYRYHCWCSNQHYTR | 1.19 ± 0.47 |
| IRYPIPWFY | inactive |
| VRALRQPAT | 0.567 ± 0.27 |
| NADKVQGMRMNRDWYSWCCL | 5.323 ± 0.038 |
| LAYLYTCLLLWSGSCNMTQV | inactive |
| YRFRSLSM | -1.14 ± 0.4 |
| GHLYSISCVFNI | 8.633 ± 0.044 |
| NVLRMMC | -0.286 ± 0.27 |
| GRGYAAVLNWRLFDKDRGRI | 0.035 ± 0.28 |
| SFSPFVYG | -0.868 ± 0.44 |
| VLSVGAGKYGLSLISSTTTI | 1.28 ± 0.66 |
| RTSKPLRRMNQRGLDFACAL | 1.04 ± 0.41 |
| GLKDAIMYSVVTLIRYRQDD | -0.809 ± 0.56 |
| YMSVSSKGQRVCFTT | -0.488 ± 0.63 |
| HFRSLALISLAEKFITRIEK | -0.13 ± 0.22 |
| LVYWRQYYCKGRVRLLC | inactive |
| KVFNSLASYSSIDLWCVVAG | inactive |
| NDGMSSIRWGMTPHYVSSGD | 0.698 ± 0.14 |
| IQYGEIGHIFCKVVISLNLE | 1.47 ± 0.2 |
| FFIIGDCGVLSCPAGGQLWS | 7.177 ± 0.037 |

| Substance | amyloid nucleation score |
| --- | --- |
| TSSTTGSYLWEDEDYSYNFF | 1.68 ± 0.12 |
| IDPLKGMLD | -2 ± 0.78 |
| SIQRTVS | 0.473 ± 0.2 |
| LSSEVISSSHALQKTSICRF | 2.72 ± 0.13 |
| MKVGLLD | -0.49 ± 0.76 |
| GGREARMGRKKGERVYRVRF | 0.657 ± 0.56 |
| CVLSLNTGTASWITHVWKLY | 0.349 ± 0.5 |
| NRWAYGVFWHSWFIKSHFG | 0.14 ± 1 |
| STSSSLAR | 0.867 ± 0.22 |
| SGNICIPFY | inactive |
| SMGFSSVPHSYTCTVEQG | 6.06 ± 0.07 |
| KTLWPGTWGGLITRVWWYTR | 0.471 ± 0.18 |
| TFWLIRTSHRGYRYEKVCTY | -0.017 ± 0.49 |
| TICGSCT | 0.045 ± 0.79 |
| YVATKYMRLNTCNLFWGGLT | 6.368 ± 0.05 |
| IDGRDSFCQGGNRTCSKGCC | -0.303 ± 0.65 |
| LRNHSHA | 0.685 ± 0.41 |
| CMGGQQPALGISSFTVVWLY | inactive |
| LTTKKLRSWV | -0.895 ± 1.1 |
| SFLDYRSLTVMFVAGQSTVR | -0.645 ± 0.53 |
| AERLRVISGWAAWYAIDTRF | 3.82 ± 0.11 |
| VEIFNLMSGTIIPGLSKLMK | -2.02 ± 0.45 |

| Substance | amyloid nucleation score |
| --- | --- |
| CNWLYF | 0.395 ± 0.8 |
| DCFSYSHLRGACNVECLFYP | -0.645 ± 1.1 |
| SGFLIRKHAKLYKPDQPLLV | 0.101 ± 0.54 |
| CYNLCCLPFCGVNLMFWLQV | 7.992 ± 0.033 |
| LDIYLLDMLWPLCAVLSNIG | -0.541 ± 0.38 |
| SRPTKYSKWILMPPCY | inactive |
| ADLCHTGRGSMRPCETED | inactive |
| SFRANDNSFGCQWRRFLISG | 0.032 ± 0.42 |
| IGTADDKVSNRQGEPTEMA | 0.681 ± 0.55 |
| GFVYQVIITIRHVCSLKRNR | 0.76 ± 0.16 |
| DSEHYVMWLKWYLLFLTYTH | -0.307 ± 0.3 |
| NWVSIEHNYIFVLRYPENAS | 8.465 ± 0.042 |
| YICRGASGIKSQLREWDVAH | -0.269 ± 0.74 |
| LNIAMVASNGRSVAVRSSGG | 0.113 ± 0.5 |
| VFWLLGCVHNRGVGQTSHKL | 0.741 ± 0.47 |
| KIRFIPTPKYHEIYMNAAIG | -1.7 ± 0.75 |
| LLAVFTSCYCQECYVEPALV | 5.55 ± 0.07 |
| FHGRSATGISRLYLKRGCSG | 0.761 ± 0.47 |
| SRTWAARNFLFRWVSPANFT | 0.119 ± 0.74 |
| LLMFRVRVDELWHGAARHMG | 1.64 ± 0.38 |
